Experimental data from patent publication US20090175866A1, “TREATMENT OF B-CELL MALIGNANCIES” (priority 2004, published 2009).

Experiments:
[1] = target: FGFR3-G394D expressed on B9 cells, P22607; test: cell-based or functional assay
[2] = target: FGFR3 (as measured by BIAcore, Table 1) (UniProt P22607); test: BIAcore
[3] = target: FGFR3 (as measured by BIAcore, Table 1) (UniProt P22607); test: BIAcore (receptor not given)

Chain of FGFR3-G394D expressed on B9 cells, P22607 (P22607 23-806, stated change not applied): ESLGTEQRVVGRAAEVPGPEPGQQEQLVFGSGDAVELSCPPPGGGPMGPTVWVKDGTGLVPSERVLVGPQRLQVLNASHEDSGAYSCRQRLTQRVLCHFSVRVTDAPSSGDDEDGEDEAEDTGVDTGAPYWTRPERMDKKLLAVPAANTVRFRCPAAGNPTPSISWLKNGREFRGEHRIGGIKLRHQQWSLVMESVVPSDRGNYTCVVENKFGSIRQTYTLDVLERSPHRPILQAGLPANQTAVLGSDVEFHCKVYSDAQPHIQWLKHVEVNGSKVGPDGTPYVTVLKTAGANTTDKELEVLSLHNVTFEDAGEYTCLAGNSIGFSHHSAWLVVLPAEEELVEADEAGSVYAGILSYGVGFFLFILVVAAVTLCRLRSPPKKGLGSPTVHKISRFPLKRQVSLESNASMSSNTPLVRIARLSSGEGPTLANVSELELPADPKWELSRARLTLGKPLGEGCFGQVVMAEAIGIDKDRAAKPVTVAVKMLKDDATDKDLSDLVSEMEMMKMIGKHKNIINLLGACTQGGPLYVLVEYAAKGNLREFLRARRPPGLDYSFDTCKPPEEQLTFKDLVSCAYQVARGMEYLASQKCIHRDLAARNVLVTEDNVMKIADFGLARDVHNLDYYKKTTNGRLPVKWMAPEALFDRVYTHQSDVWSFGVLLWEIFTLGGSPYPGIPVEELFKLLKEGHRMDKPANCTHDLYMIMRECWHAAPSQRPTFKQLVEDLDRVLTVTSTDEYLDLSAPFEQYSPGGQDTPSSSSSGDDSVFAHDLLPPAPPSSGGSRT

Binder | IC50 of FGF-stimulated growth of B9 cells expressing G394D-FGFR3 [1] [µg/mL] | Kd [2] [nM] | koff [3] [s⁻¹]
PRO-001 Fab (Fab, V domains shown) VH: QVQLQQSGPGLVKPSQTLSLTCAISGDSVSSNSAAWNWIRQSPGRGLEWLGRTYYRSKWYNDYAVSVKSRITINPDTSKNQFSLQLNSVTPEDTAVYYCARSYYPDFDYWGQGTLVTVSS VL: DIELTQPPSVSVAPGQTARISCSGDALGDKYASWYQQKPGQAPVLVIYDDSDRPSGIPERFSGSNSGNTATLTISGTQAEDEADYYCQSYDGPDLWVFGGGTKLTVLGQ | 3 |  | 
PRO-029 (Fab, V domains shown) VH: QVQLVQSGAEVKKPGASVKVSCKASGYTFTSYYMHWVRQAPGQGLEWMGWINPNSGGTNYAQKFQGRVTMTRDTSISTAYMELSSLRSEDTAVYYCARTWQYSYFYYLDGGYYFDIWGQGTLVTVSS VL: DIVLTQSPATLSLSPGERATLSCRASQSVSSSYLAWYQQKPGQAPRLLIYGASSRATGVPARFSGSGSGTDFTLTISSLEPEDFATYYCQQTNNAPVTFGQGTKVEIKR |  | 6 | 0.0014
PRO-054 (Fab, V domains shown) VH: QVQLVQSGAEVKKPGASVKVSCKASGYTFTSYYMHWVRQAPGQGLEWMGWINPNSGGTNYAQKFQGRVTMTRDTSISTAYMELSSLRSEDTAVYYCARNMAYTNYQYVNMPHFDYWGQGTLVTVSS VL: DIELTQPPSVSVAPGQTARISCSGDALGDKYASWYQQKPGQAPVLVIYDDSDRPSGIPERFSGSNSGNTATLTISGTQAEDEADYYCQSYDYFKLVFGGGTKLTVLG |  | 3.7 | 0.002
PRO-012 (Fab, V domains shown) VH: QVQLKESGPALVKPTQTLTLTCTFSGFSLSTSGVGVGWIRQPPGKALEWLALIDWDDDKYYSTSLKTRLTISKDTSKNQVVLTMTNMDPVDTATYYCARYHSWYEMGYYGSTVGYMFDYWGQGTLVTVSS VL: DIELTQPPSVSVAPGQTARISCSGDALGDKYASWYQQKPGQAPVLVIYDDSDRPSGIPERFSGSNSGNTATLTISGTQAEDEADYYCQSYDFDFAVFGGGTKLTVLG |  | 14 | 0.0023
PRO-026 (Fab, V domains shown) VH: QVQLVQSGAEVKKPGASVKVSCKASGYTFTSYYMHWVRQAPGQGLEWMGWINPNSGGTNYAQKFQGRVTMTRDTSISTAYMELSSLRSEDTAVYYCARGYWYAYFTYINYGYFDNWGQGTLVTVSS VL: DIALTQPASVSGSPGQSITISCTGTSSDVGGYNYVSWYQQHPGKAPKLMIYDVSNRPSGVSNRFSGSKSGNTASLTISGLQAEDEADYYCQSYDNNSDVVFGGGTKLTVLG |  | 4 | 0.0005
PRO-055 (Fab, V domains shown) VH: QVQLVQSGAEVKKPGASVKVSCKASGYTFTSYYMHWVRQAPGQGLEWMGWINPNSGGTNYAQKFQGRVTMTRDTSISTAYMELSSLRSEDTAVYYCARSMNSTMYWYLRRVLFDHWGQGTLVTVSS VL: DIALTQPASVSGSPGQSITISCTGTSSDVGGYNYVSWYQQHPGKAPKLMIYDVSNRPSGVSNRFSGSKSGNTASLTISGLQAEDEADYYCQSYDMYNYIVFGGGTKLTVLG |  | 2.9 | 0.00074
PRO-002 (Fab, V domains shown) VH: QVQLVQSGAEVKKPGASVKVSCKASGYTFTSYYMHWVRQAPGQGLEWMGWINPNSGGTNYAQKFQGRVTMTRDTSISTAYMELSSLRSEDTAVYYCARDFLGYEFDYWGQGTLVTVSS VL: DIELTQPPSVSVAPGQTARISCSGDALGDKYASWYQQKPGQAPVLVIYDDSDRPSGIPERFSGSNSGNTATLTISGTQAEDEADYYCQSYDYSADYVFGGGTKLTVLG |  | 37 | 0.02
